PMC4900533

How the values were obtained:
[1] = immunoblot of PNGase F-treated MDCKII lysates, densitometry; details: glycan lost; control: wild type
[2] = confocal microscopy, apical marker gp135, MDCKII; details: glycan lost; control: wild type

B1: ABCG2: Q596 (protein)
parent chain: MSSSNVEVFIPVSQGNTNGFPATASNDLKAFTEGAVLSFHNICYRVKLKSGFLPCRKPVEKEILSNINGIMKPGLNAILGPTGGGKSSLLDVLAARKDPSGLSGDVLINGAPRPANFKCNSGYVVQDDVVMGTLTVRENLQFSAALRLATTMTNHEKNERINRVIQELGLDKVADSKVGTQFIRGVSGGERKRTSIGMELITDPSILFLDEPTTGLDSSTANAVLLLLKRMSKQGRTIIFSIHQPRYSIFKLFDSLTLLASGRLMFHGPAQEALGYFESAGYHCEAYNNPADFFLDIINGDSTAVALNREEDFKATEIIEPSKQDKPLIEKLAEIYVNSSFYKETKAELHQLSGGEKKKKITVFKEISYTTSFCHQLRWVSKRSFKNLLGNPQASIAQIIVTVVLGLVIGAIYFGLKNDSTGIQNRAGVLFFLTTNQCFSSVSAVELFVVEKKLFIHEYISGYYRVSSYFLGKLLSDLLPMRMLPSIIFTCIVYFMLGLKPKADAFFVMMFTLMMVAYSASSMALAIAAGQSVVSVATLLMTICFVFMMIFSGLLVNLTTIASWLSWLQYFSIPRYGFTALQHNEFLGQNFCPGLNATGNNPCNYATCTGEEYLVKQGIDLSPWGLWKNHVALACMIVIFLTIAYLKLLFLKKYS
expression_or_secretion [1]: decreases | localisation_or_trafficking [2]: no change
